Test results published in patent US20120282280A1 (Hoffmann-La Roche, published 2012).

Columns and labels:
[1] = target: DIG-Myoglobin (mono-digoxygenated protein); test: SPR (Biacore), DIG-Myoglobin as analyte
[2] = target: DIG-BP4 (digoxygenated protein); test: SPR (Biacore), antibody captured by anti-human IgG, DIG-BP4 injected 0.3125-10 nM, 25 C
[3] = target: DIG-Myoglobin (mono-digoxygenated protein); test: SPR (Biacore), DIG-Myoglobin as analyte, replicate
[4] = target: DIG-Myoglobin (mono-digoxygenated protein); test: SPR (Biacore), DIG-Myoglobin as analyte; lower end of the range, tied to <DIG>hu2 by Table 3a
[5] = target: DIG-BP4 (digoxygenated protein); test: SPR (Biacore), antibody captured by anti-mouse IgG, DIG-BP4 injected 0.3125-10 nM, 25 C
[6] = target: DIG-Myoglobin (mono-digoxygenated protein); test: SPR (Biacore), DIG-Myoglobin as analyte; remark: listed apart in the source
[7] = target: DIG-BP4 (digoxygenated protein); test: SPR (Biacore), legend of FIG. 10d (Table 3 and the text print 33 pM)

Chain of DIG-Myoglobin (mono-digoxygenated protein) (P68082 2-154): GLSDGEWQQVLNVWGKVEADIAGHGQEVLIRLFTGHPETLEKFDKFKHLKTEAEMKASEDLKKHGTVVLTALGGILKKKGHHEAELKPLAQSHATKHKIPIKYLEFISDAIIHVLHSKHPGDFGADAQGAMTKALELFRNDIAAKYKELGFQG

B1: humanized <Dig> IgG (antibody, V domains shown)
VH: QVQLVESGGGLVKPGGSLRLSCAASGFTFSDYAMSWIRQAPGKGLEWVSSINIGATYIYYADSVKGRFTISRDNAKNSLYLQMNSLRAEDTAVYYCARPGSPYEYDKAYYSMAYWGQGTTVTVSS
VL: DIQMTQSPSSLSASVGDRVTITCRASQDIKNYLNWYQQKPGKAPKLLIYYSSTLLSGVPSRFSGSGSGTDFTLTISSLQPEDFATYYCQQSITLPPTFGGGTKVEIKR
notes: also called <DIG>hu2; <DIG>-hu2
Kd [1]: 15.8 nM | koff [1]: 0.00982 s⁻¹ | kon [1]: 620000 M⁻¹ s⁻¹ | Kd [2]: < 0.076 nM | Kd [3]: 11.8 nM | koff [3]: 0.00881 s⁻¹ | kon [3]: 749000 M⁻¹ s⁻¹ | Kd [4]: 15 to 25 nM

B2: murine <Dig> IgG1 kappa from mouse hybridoma clone 19-11 (antibody, V domains shown)
VH: EVQLVESGGGLVKPGGSLKLSCAVSGFTFSDYAMSWIRQTPENRLEWVASINIGATYAYYPDSVKGRFTISRDNAKNTLFLQMSSLGSEDTAMYYCARPGSPYEYDKAYYSMAYWGPGTSVTVSS
VL: DVQMTQSTSSLSASLGDRVTISCRASQDIKNYLNWYQQKPGGTVKLLIYYSSTLLSGVPSRFSGRGSGTDFSLTITNLEREDIATYFCQQSITLPPTFGGGTKLEIK
notes: also called murine DIG-IgG 19-11; <DIG>M-19-11
Kd [5]: 0.033 nM | Kd [1]: 0.386 nM | koff [1]: 0.000676 s⁻¹ | kon [1]: 1.75e+06 M⁻¹ s⁻¹ | Kd [3]: 0.295 nM | koff [3]: 0.000675 s⁻¹ | kon [3]: 2.28e+06 M⁻¹ s⁻¹ | fold better affinity than <DIG>-hu2 and the disulfide-stabilized <DIG> scFv [6]: ~100 fold | Kd [7]: 33 nM
